Results reported in patent publication CN111303278A (JANSSEN VACCINES & PREVENTION BV, dated 2020).

Biological target: Sym-1789
Assay: ELISA, biotinylated peptide on avidin plate, mAb titrated

B1: CB017.5L (antibody, V domains shown)
VH: QVQLVESGGGVVQPGRSLRLSCSASGFTFSVYAMHWVRQAPGQGLEWVAIIWYDGSNKYYADSVKGRFTISRDNSKETLYLQMNSLRVEDTAVYYCARDPIVGHTRDGLDVWGQGTTVTVSS
VL: SYELTQPPSVSVSPGQTARVTCSGDAMAEQYTYWYQQKPGQAPVLIIFKDTERPSGIPERFSGSSSGTTVTLTISGVQTEDEADYYCQSTDSSGTSWVFGGGTKLTVL
  IC50: ~0.02 µg/mL

B2: CB030.1 (antibody, V domains shown)
VH: QVQLVQSGAEMKRPGSSVKVSCKASGGTFSTFAINWVRQAPGQGFEWMGGVIPGFDSANYAQKFQGRLTMSADESTSTVYMELSSLRSDDTAVYYCAGNSGYCSGDSCAPNWGPGTLVTVSS
VL: DIVMTQSPLSLPVTPGEPASISCRSSQSLVHSNGYSYLDWYLQKPGQSPQLLIYLGSNRPSGVPDRFSGSGSGTDFTLKISRVEAEDVGVYFCMQNLQTPTFGGGTKVEIK
  IC50: ~0.02 µg/mL
